Assay results as given in the supplement of paper PMC9732359.
± gives the uncertainty stated by the source.

Assay: protein stability index of a GFP-peptide fusion (yeast GPS) (PSI 1-4); higher = more stable; sorted into four equal gates, so the index is relative within each strain
Method in brief: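 Sequencing reads from sorted gates were used to score each peptide. The library consisted of tiled 17-residue yeast protein peptides fused downstream of GFP on a Cherry-expressing plasmid, pooled and carried in yeast. Mid-log cultures in leucine-free medium were split into four equal gates by GFP/Cherry ratio, and each gate's plasmids were PCR-amplified and Illumina-sequenced. The protein stability index adds up, over all gates, the read frequency multiplied by the gate number.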

| Sequence | protein stability index (doa10∆) | protein stability index (pdr5∆) | protein stability index (san1∆) | protein stability index (ubr1∆) |
| --- | --- | --- | --- | --- |
| PRLGSIDRNLKCQTCQE [RPO21] | 2.01 ± 0.099 | 1.7 ± 0.056 | 2.18 ± 0.12 | 2.67 ± 0.069 |
| VLVASAKGLQTVVVEED [RPL31A] | 2.19 ± 0.1 | 2.49 ± 0.11 | 2.54 ± 0.087 | 2.25 ± 0.094 |
| EQSVKTQNSRHYMVHEA [LIN1] | 2.62 ± 0.25 | 2.82 ± 0.11 | 2.49 ± 0.089 |  |
| GDDVVNDVQGIDDVQTI [RPP1] | 3.2 ± 0.15 | 3.46 ± 0.14 | 3.42 ± 0.067 | 3.18 ± 0.081 |
| RRHRNPDLQFIVISLKN [SMC1] | 1.86 ± 0.041 | 1.83 ± 0.039 | 1.73 ± 0.058 | 2.13 ± 0.027 |
| QHTSFQEAVNSLKGYKI [CSI1] | 3.15 ± 0.1 | 3.21 ± 0.065 | 3.35 ± 0.048 | 3.39 ± 0.067 |
| TLIVNTDVEKSDPAAKK [SRP21] |  | 3.13 ± 0.3 |  | 3.7 ± 0.16 |
| MQEKAAHIAKNLINLSI [YCS4] | 2.15 ± 0.15 | 1.55 ± 0.2 |  | 1.46 ± 0.093 |
| PVIDTQIANEFNTQQGI [YDL116W/NUP84] | 2.77 ± 0.051 | 2.99 ± 0.057 | 2.79 ± 0.042 | 2.95 ± 0.047 |
| VLTHESLHRQQQQQQQQ [DLS1] | 3 ± 0.082 | 2.9 ± 0.079 | 2.62 ± 0.052 | 2.85 ± 0.079 |
| LSHYIRQCFQDNCCDFK [MED1] | 2.78 ± 0.045 | 2.75 ± 0.052 | 2.94 ± 0.05 | 2.83 ± 0.032 |
| RKHKRVSPNAAPRQEIS [YAR002W/NUP60] | 2.92 ± 0.08 | 2.89 ± 0.056 | 2.92 ± 0.046 | 2.71 ± 0.063 |
| EVNSKKKNKRALPNIEN [BRR2] | 2.9 ± 0.14 | 3.2 ± 0.096 | 3.35 ± 0.088 | 3.09 ± 0.068 |
| EVIGYIAAGTYGKVYKA [SSN3] | 2.01 ± 0.05 | 2.25 ± 0.042 | 2.17 ± 0.069 | 1.9 ± 0.045 |
| DSNGDFNEDQLFSLLEL [RRP46] | 2.83 ± 0.16 | 2.82 ± 0.16 | 3.31 ± 0.069 | 2.98 ± 0.1 |
| AEDVALNEQVKKFFLNN [NAS6] | 2.12 ± 0.058 | 2.18 ± 0.069 | 2.11 ± 0.067 | 2.04 ± 0.068 |
| FGTGKRLAKKVARRNAD [RPS24A] | 3.46 ± 0.062 | 3.31 ± 0.055 | 3.1 ± 0.04 | 3.31 ± 0.039 |
| PLFIVEDDESLGHKELK [RPB2] | 3.34 ± 0.15 | 3.34 ± 0.15 | 2.77 ± 0.14 | 1.8 ± 0.097 |
| NTTVISDKQRRLLAKDA [DIS3] | 2.37 ± 0.051 | 2.23 ± 0.045 | 2.06 ± 0.066 | 2.18 ± 0.045 |
| EDCVEEFFHLQHYLDTA [QCR6] | 3.21 ± 0.085 | 3.4 ± 0.081 | 3.13 ± 0.063 | 3.31 ± 0.068 |
| KVGEDIAKATKEFKGIK [RPL12A] | 3.07 ± 0.16 | 3.22 ± 0.14 | 3.25 ± 0.15 | 3.17 ± 0.15 |
| VSPNISSASPSALTSPT [SIR3] | 2.45 ± 0.056 | 2.78 ± 0.074 | 2.95 ± 0.06 | 2.53 ± 0.04 |
| ATQVKTDNTVDKFDFYK [RPT3] | 3.29 ± 0.12 | 2.98 ± 0.11 | 3.26 ± 0.095 | 3.09 ± 0.099 |
| ESAFENLMGNRNNHNSN [SNF12] |  |  |  | 3.44 ± 0.21 |
| RVPIRSEYKVAFPHLYN [PRP8] | 2.54 ± 0.069 | 2.27 ± 0.062 | 2.34 ± 0.083 | 2.08 ± 0.041 |
| IYNKMIGVLNNSSESDE [RPN13] | 2.74 ± 0.14 | 3.12 ± 0.12 | 2.94 ± 0.06 | 2.94 ± 0.067 |

| Sequence | protein stability index (doa10∆) | protein stability index (pdr5∆) | protein stability index (san1∆) | protein stability index (ubr1∆) |
| --- | --- | --- | --- | --- |
| AGERKIPHDLNFLQESY [TAF14] | 2.83 ± 0.086 | 3 ± 0.079 | 2.71 ± 0.064 | 2.62 ± 0.071 |
| TANTGTIGKRRTTTNTT [TAF14] | 3.18 ± 0.06 | 3.29 ± 0.046 | 3.21 ± 0.045 | 3.19 ± 0.062 |
| ELIKNYITARIMAKRPF [FAS1] | 2.93 ± 0.13 | 2.58 ± 0.26 | 3.03 ± 0.046 | 2.78 ± 0.21 |
| REGRHSGYGKRKGTREA [RPL19A] |  | 3.21 ± 0.27 |  | 3.52 ± 0.25 |
| LKLGLVEYLDVNEENDS [RET1] | 3.11 ± 0.075 | 3.08 ± 0.086 | 3.16 ± 0.071 | 3.1 ± 0.075 |
| KSAVSHAPAYHRSKKDQ [IRR1] | 3.13 ± 0.16 | 2.79 ± 0.11 |  | 3.1 ± 0.069 |
| MINRLLLCALDRKDQDD [RPB2] | 1.86 ± 0.16 | 3.11 ± 0.1 | 2.11 ± 0.17 | 2.97 ± 0.067 |
| TLLNFVSNNVLRRLEIL [ECM29] | 1.63 ± 0.1 | 1.92 ± 0.29 | 2.28 ± 0.19 | 2.48 ± 0.12 |
| PQDLTFNAGSNPPSYQS [RPB7] | 2.96 ± 0.17 | 2.99 ± 0.11 | 3.1 ± 0.17 | 2.86 ± 0.096 |
| AYSSRFQTPFRRRREGK [RPL5] | 2.9 ± 0.078 | 2.75 ± 0.068 | 2.58 ± 0.082 | 3.04 ± 0.064 |
| LGLLLPIAASTDLPIET [RPN1] | 1.67 ± 0.049 | 2 ± 0.065 | 1.79 ± 0.076 | 2.17 ± 0.055 |
| NQASTSKRVYKILSPTM [CDC53] | 2.58 ± 0.062 | 2.57 ± 0.05 | 2.54 ± 0.051 | 2.59 ± 0.067 |
| VTQKDICILGILDLCQL [CSI1] | 2.59 ± 0.091 | 2.85 ± 0.072 | 2.24 ± 0.11 | 1.29 ± 0.15 |
| EDGLLEGLDELPKIIQL [SOH1] | 3.11 ± 0.07 | 3.3 ± 0.047 | 3.12 ± 0.044 | 3.15 ± 0.051 |
| SLSDEVMRNEIRITSLQ [SIR4] | 2.92 ± 0.065 | 2.48 ± 0.064 | 2.81 ± 0.067 | 2.52 ± 0.077 |
| ILCIFEGEKCHPQDFGN [SEC65] | 2.13 ± 0.059 | 2.39 ± 0.066 | 2.14 ± 0.087 | 2.44 ± 0.053 |
| NLTAGIIVAGYDDKNKG [PRE3] | 2 ± 0.071 | 2.75 ± 0.096 | 2.53 ± 0.12 | 2.16 ± 0.077 |
| EFVDDYTVNVVDVFAMP [RPN11] | 3.08 ± 0.19 | 3.01 ± 0.17 | 2.91 ± 0.12 | 3.13 ± 0.13 |
| KSLEDLSCQYDNTVRTS [RPO31] | 1.3 ± 0.19 | 1.31 ± 0.14 |  |  |
| AKGFYHTPMVNFESISA [SRB8] | 2.16 ± 0.06 | 1.84 ± 0.05 | 1.52 ± 0.11 | 1.93 ± 0.05 |
| EFDSDDDDISDDEEDEI [RPN4] | 3.47 ± 0.1 | 3.28 ± 0.09 | 3.14 ± 0.082 | 3.31 ± 0.098 |
| VFGTIIPKISDYIEFNI [YJL039C/NUP192] | 2.05 ± 0.17 | 1.68 ± 0.22 |  | 1.61 ± 0.26 |
| LIGCIDEAKDFIVSGTA [PUP3] | 2.59 ± 0.058 | 2.67 ± 0.061 | 2.66 ± 0.053 | 3.01 ± 0.044 |
| GCSKICDLSSKFNKSKA [YCS4] | 3.08 ± 0.087 | 2.82 ± 0.093 | 3.16 ± 0.045 | 2.99 ± 0.057 |
| ETNLQTFLPPLLLKLAS [ECM29] | 1.65 ± 0.038 | 1.85 ± 0.043 | 1.62 ± 0.063 | 2.11 ± 0.034 |
| IKTRDACPLDNQPWQLA [HRT1] | 3.02 ± 0.085 | 2.66 ± 0.063 | 2.27 ± 0.073 | 3.12 ± 0.049 |
